Here are results for six molecules from US20140120109A1 (Regeneron, published 2014).

Positions count from the first letter of the chain named. Numbers in names are those of the source.

To fix the notation:
T1: human TL1A, soluble, CHO-expressed, residues 72-251 of SEQ ID NO:244 with N-terminal His6-tag (human, UniProt O95150 72-251)
T1 sequence: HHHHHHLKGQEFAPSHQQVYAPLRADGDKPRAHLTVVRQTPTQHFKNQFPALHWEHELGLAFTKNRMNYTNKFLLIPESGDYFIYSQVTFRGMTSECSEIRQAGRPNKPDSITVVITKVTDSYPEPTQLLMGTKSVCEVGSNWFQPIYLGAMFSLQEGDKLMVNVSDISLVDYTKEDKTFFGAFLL

T2: cynomolgus monkey TL1A, soluble, CHO-expressed, residues 72-251 of SEQ ID NO:248 with N-terminal His6-tag (cynomolgus monkey (Macaca fascicularis), UniProt O95150 72-251 (human entry))
T2 construct: also called MfTL1A; MfTL1A (CHO)
T2 chain: T1 sequence with F45L, I84V

T3: full length human TL1A expressed on HEK293 cells (human, UniProt O95150 1-251)
T3 construct: also called HEK293/hTL1A; cell-surface hTL1A
T3 sequence: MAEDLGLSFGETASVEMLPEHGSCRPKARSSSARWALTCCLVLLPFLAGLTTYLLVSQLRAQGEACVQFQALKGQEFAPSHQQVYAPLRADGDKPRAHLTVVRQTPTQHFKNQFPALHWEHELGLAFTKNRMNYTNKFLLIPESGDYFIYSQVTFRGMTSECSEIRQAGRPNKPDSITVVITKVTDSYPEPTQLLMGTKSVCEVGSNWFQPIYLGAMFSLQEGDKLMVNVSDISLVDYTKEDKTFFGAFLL

B1: H4H1725P (antibody, human IgG4 S228P, V domains shown)
VH: QVQLVQSGAEVKKPGASVKVSCKASGYTFTGYYMHWVRQAPGQGLEWMGWIKPKSGGTNYVQKFQGRVTMTRDTSINTAYMELNNLKSDDTAVYYCATGGSQDASDFWGQGTMVTVSS
VL: DIQMTQSPSSVSASVGGRVTITCRASQDISIWLAWYQQKPGKAPNLLIYAASSLQSGVPSRFSGSGSGTDFTLTISSLQPEDFATYYCQQADSFPLTFGGGTKVEIK
B2: H4H1805N (antibody, human IgG4 S228P, V domains shown)
VH: QVQLQQWGAGLLKPSETLSLTCAVYGGSFTGFYWSWIRQPPGKGLEWIGEINHRGNTNYNPSLKSRVTMSVDTSKNQFSLNMISVTAADTAMYFCASPFYDFWSGSDYWGQGTLVTVSS
VL: DIMLTQTPLTSPVTLGQPASISCKSSQSLVHSDGNTYLSWLQQRPGQPPRLLFYKISNRFSGVPDRFSGSGAGTDFTLKISRVEAEDVGVYYCMQATQFPLTFGGGTKVEIK
notes: human IgG4(S108P) form of H2M1805N
B3: H4H1804N (antibody, human IgG4 S228P, V domains shown)
VH: QVQLHQWGAGLLKPSETLSLTCAVSGVSFSDYHWAWIRQSPGKGLEWIGDINHRGRTNYNPSLKSRVTISLDTSGNPFSLKLTSVTAADTAVYYCARDFPNWVFDSWGQGILVTVSS
VL: EIVLSQSPGTLSLSPGERATLSCRASQSVSSSFLAWYQQYPGQAPRLLIYGASRRATGIPDRFRGSGSGTDFTLTISRLEPEDFAVYYCQQYGSSPLTFGGGTKVENK
notes: human IgG4(S108P) form of H2M1804N
B4: H4H1818N (antibody, human IgG4 S228P, V domains shown)
VH: RLQLVESGGGLVKPGGSLKLSCAASGFTISDYYMSWIRQAPGKGLEWVSYIGGSGSTIYYADSVKGRFTISRDNAKNSLYLQMNSLRAEDTAVYYCAREDADSYYYYGMDVWGQGTTVTVSS
VL: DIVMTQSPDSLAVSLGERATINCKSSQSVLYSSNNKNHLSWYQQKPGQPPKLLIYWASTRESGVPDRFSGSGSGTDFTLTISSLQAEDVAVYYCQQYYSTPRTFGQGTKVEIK
notes: human IgG4(S108P) form of H2M1818N
B5: H4H1750P (antibody, human IgG4 S228P, V domains shown)
VH: QVQLVESGGGVVQPGRSLRLSCVASGFTFSNYGMHWVRQAPGKGLEWVAVISYDGNNDLYSDSVKGRFTISRDNAKNALSLQMTSLRAEDTAVYYCARDSTMTPYYYHGIDVWGQGTTVTVSA
VL: DIQMTQSPSSLSASVGDRVTITCRASQDIRNDLGWYQQKPGKAPKRLIYAASSLQSGVPSRFSGSGSGTDFTLTISSLQPEDFATYYCLQHNSYPPTFGQGTKVEIK
B6: H4H1704N (antibody, human IgG4 S228P, V domains shown)
VH: EVQLVESGGGLVQPGGSLRLSCAVSGFTFSSYWMSWVRQAPGKGLEWVANIKEDGSEKNYVDSVKGRFTLSSDNAKNSLYLQMNSLRAEDTAVYYCAREDYDSYYKYGMDVWGQGTAVIVSS
VL: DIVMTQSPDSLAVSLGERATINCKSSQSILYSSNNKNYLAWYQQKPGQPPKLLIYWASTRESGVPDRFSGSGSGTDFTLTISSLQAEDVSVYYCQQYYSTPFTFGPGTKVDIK
notes: human IgG4(S108P) form of H2M1704N

For the first assay, the target named is T1, human TL1A, soluble, CHO-expressed, …. Nature of the assay: cell-based or functional assay.
Turning to B1, the “% Blocking IFN-g, D1, 1 ug/ml mAb” value came out at 90%; the “% Blocking IFN-g, D1, 3 ug/ml mAb” value is 95%; the “% Blocking IFN-g, D2, 1 ug/ml mAb” value is 100%; the “% Blocking IFN-g, D2, 3 ug/ml mAb” value was 100%. For the same molecule, the “% Blocking IFN-g, D3, 1 ug/ml mAb” value came out at 70%; the “% Blocking IFN-g, D3, 3 ug/ml mAb” value was found to be 95%; the “% Blocking IFN-g, D4, 1 ug/ml mAb” value was found to be 85%; the “% Blocking IFN-g, D4, 3 ug/ml mAb” value is 100%. The “% Blocking IFN-g, D5, 1 ug/ml mAb” value amounted to 45%; the “% Blocking IFN-g, D5, 3 ug/ml mAb” value came to 90%; the “% Blocking IFN-g, D6, 1 ug/ml mAb” value stood at 80%; the “% Blocking IFN-g, D6, 3 ug/ml mAb” value came out at 80%. Also, the “% Blocking IFN-g, D7, 1 ug/ml mAb” value turned out to be 60%; the “% Blocking IFN-g, D7, 3 ug/ml mAb” value amounted to 90%; the “% Blocking IFN-g, D8, 1 ug/ml mAb” value is 85%; the “% Blocking IFN-g, D8, 3 ug/ml mAb” value was 100%. For the same molecule, the “% Blocking IFN-g, D9, 1 ug/ml mAb” value is 50%; the “% Blocking IFN-g, D9, 3 ug/ml mAb” value was found to be 90%; the “% Blocking IFN-g, D10, 1 ug/ml mAb” value worked out at 95%; the “% Blocking IFN-g, D10, 3 ug/ml mAb” value worked out at 100%.
In the case of B2, the “% Blocking IFN-g, D1, 1 ug/ml mAb” value came out at 100%; the “% Blocking IFN-g, D1, 3 ug/ml mAb” value was determined as 100%; the “% Blocking IFN-g, D2, 1 ug/ml mAb” value stood at 100%; the “% Blocking IFN-g, D2, 3 ug/ml mAb” value came to 100%. Further, the “% Blocking IFN-g, D3, 1 ug/ml mAb” value came to 90%; the “% Blocking IFN-g, D3, 3 ug/ml mAb” value came to 95%; the “% Blocking IFN-g, D4, 1 ug/ml mAb” value was determined as 100%; the “% Blocking IFN-g, D4, 3 ug/ml mAb” value amounted to 100%. The “% Blocking IFN-g, D5, 1 ug/ml mAb” value is 100%; the “% Blocking IFN-g, D5, 3 ug/ml mAb” value came to 80%; the “% Blocking IFN-g, D6, 1 ug/ml mAb” value turned out to be 100%; the “% Blocking IFN-g, D6, 3 ug/ml mAb” value came out at 100%. Further, the “% Blocking IFN-g, D7, 1 ug/ml mAb” value was 100%; the “% Blocking IFN-g, D7, 3 ug/ml mAb” value came to 100%; the “% Blocking IFN-g, D8, 1 ug/ml mAb” value came out at 100%; the “% Blocking IFN-g, D8, 3 ug/ml mAb” value was 100%. For the same molecule, the “% Blocking IFN-g, D9, 1 ug/ml mAb” value was determined as 90%; the “% Blocking IFN-g, D9, 3 ug/ml mAb” value worked out at 70%; the “% Blocking IFN-g, D10, 1 ug/ml mAb” value worked out at 100%; the “% Blocking IFN-g, D10, 3 ug/ml mAb” value was determined as 100%.
Regarding B3, the “% Blocking IFN-g, D1, 1 ug/ml mAb” value is 95%; the “% Blocking IFN-g, D1, 3 ug/ml mAb” value was 100%; the “% Blocking IFN-g, D2, 1 ug/ml mAb” value stood at 100%; the “% Blocking IFN-g, D2, 3 ug/ml mAb” value is 100%. Also, the “% Blocking IFN-g, D3, 1 ug/ml mAb” value worked out at 80%; the “% Blocking IFN-g, D3, 3 ug/ml mAb” value came to 95%; the “% Blocking IFN-g, D4, 1 ug/ml mAb” value worked out at 90%; the “% Blocking IFN-g, D4, 3 ug/ml mAb” value is 100%. Further, the “% Blocking IFN-g, D5, 1 ug/ml mAb” value is 100%; the “% Blocking IFN-g, D5, 3 ug/ml mAb” value is 100%; the “% Blocking IFN-g, D6, 1 ug/ml mAb” value was 50%; the “% Blocking IFN-g, D6, 3 ug/ml mAb” value turned out to be 100%. In addition, the “% Blocking IFN-g, D7, 1 ug/ml mAb” value was 10%; the “% Blocking IFN-g, D7, 3 ug/ml mAb” value is 100%; the “% Blocking IFN-g, D8, 1 ug/ml mAb” value was determined as 100%; the “% Blocking IFN-g, D8, 3 ug/ml mAb” value came to 100%. Further, the “% Blocking IFN-g, D9, 1 ug/ml mAb” value came out at 50%; the “% Blocking IFN-g, D9, 3 ug/ml mAb” value is 100%; the “% Blocking IFN-g, D10, 1 ug/ml mAb” value was 0%; the “% Blocking IFN-g, D10, 3 ug/ml mAb” value was found to be 80%.

The target is the same in a further assay. Nature of the assay: SPR 37C, mAb captured; kd set at 1e-6 1/s. The method, then:
(§1) Measurements were conducted on a T100 BIACORE™ instrument. […] Kinetic association (kₐ) and dissociation (kd) rate constants were determined by fitting the data to a 1:1 binding model using BIAevaluation 4.1 curve fitting software (BIAcore Life Sciences). Molar concentrations of TL1A/Fhm used in the data fitting assumed a monomeric state for TL1A in solution. Binding dissociation equilibrium constants (KD) and dissociative half-lives (t_{1/2}) were calculated from the kinetic rate constants as: KD (M)=kd/kₐ; and t_{1/2} (min)=[In2/(60*kd)].
As to B4, the Kd was at most 0.925 pM and the t1/2 is at least 192 h.
On the same counts, the results for B5 are at most 13.8 pM and at least 192 h.
In turn, B6 displayed a Kd of at most 1 pM and a t1/2 of at least 192 h.

The target in a further assay is T2, cynomolgus monkey TL1A, soluble, …. Nature of the assay: SPR 37C, mAb captured; kd set at 1e-6 1/s. How it is done:
as §1
In the case of B4, the Kd is at most 0.804 pM and the t1/2 was at least 192 h.
In turn, B6 showed a Kd of at most 0.93 pM and a t1/2 of at least 192 h.

The next assay has as its target T3, full length human TL1A expressed on …. In words: flow, HEK293/hTL1A, mAb 0.1 ug/ml + 3 ug/ml soluble hTL1A. The method, then:
(§2) Human embryonic kidney 293 cells stably transfected to over-express cell-surface hTL1A were first stained in a flow cytometric experiment with eight anti-hTL1A antibodies at four concentrations (1, 0.1, 0.01, and 0.003 μg/ml). […] The lowest antibody concentration providing significant staining levels was then used in a competition binding experiment. A negative isotype control antibody (human IgG4) was used at 1 μg/ml to define the background signal. For the competition experiment, eight antibody samples, at the minimal concentrations identified above, were first treated with soluble hTL1A expressed from CHO cells at concentrations ranging from 0.03 μg/ml to 10 μg/ml. After pre-incubation for 30 min on ice, the antibody/hTL1A mixture was added to 293/HEK-hTL1A cells that had been isolated by centrifugation in a 96-well conical plate. After incubation for an additional 10 minutes on ice, the cells were washed. The secondary reagent, anti-h Fcγ-APC F(ab′)₂, was added to all wells at a 200-fold dilution to detect bound antibodies. Samples were incubated for 15 minutes on ice, away from light, and then washed. Cells were processed on an BD™ LSR II Flow Cytometer (BD Biosciences) to detect anti-hTL1A antibodies bound to the cell surface, and data were analyzed using FlowJo software (version 8.8.6; Tree Star Inc.). Maximum signal: Anti-hTL1A antibody binding in the absence of soluble hTL1A; Minimum signal: Signal recorded when […] of isotype control antibody was added in place of the anti-hTL1A antibody. NT: Not tested.
For B1, the MFI was found to be 34.9.
On the same count and under the same terms, in the case of B6 it was 22.6; in that of B2, 23.6.
As to B3, the MFI was found to be 28.9.

The next assay has the same target. Nature of the assay: flow, HEK293/hTL1A, mAb 0.1 ug/ml + 0.1 ug/ml soluble hTL1A. How it is done:
as §2
Turning to B1, the MFI came out at 84.5.
B6: the MFI is 132.
Consider B2, for which the MFI turned out to be 60.2.
Take B3: the MFI worked out at 51.1.

The next assay shares this target. Nature of the assay: flow, HEK293/hTL1A, mAb 0.1 ug/ml + 0.3 ug/ml soluble hTL1A. How it is done:
as §2
For B1, the MFI was found to be 40.7.
B6: the MFI came out at 31.5.
Same read-out and setting: then B2, with 36.8.
The same measure, in the same setting: in the case of B3 it was 33.5.

A further assay shares this target. In words: flow, HEK293/hTL1A, mAb 0.1 ug/ml + 0.03 ug/ml soluble hTL1A. The method, then: as §2
As to B1, the MFI is 207.
On to B6, for which the MFI was 163.
As for B2, the MFI was 156.
Regarding B3, the MFI was 126.
